Patent US6764680

How the values were obtained:
[1] = molecular target: rabbit antiserum against COMBINED LOOP + CTP37, rabbit # 4165; experiment: competition immunoassay, peptide competitor against rabbit antiserum 4165; legend: ++ = ED 50 < 250 ng
[2] = molecular target: rabbit antiserum against CTP37, rabbit # 4164; experiment: competition immunoassay, peptide competitor against rabbit antiserum 4164; legend: ++ = ED 50 < 250 ng
[3] = molecular target: rabbit antiserum against COMBINED LOOP + CTP37, rabbit # 4173; experiment: competition immunoassay, peptide competitor against rabbit antiserum 4173; legend: ++ = ED 50 < 250 ng
[4] = molecular target: rabbit antiserum against COMBINED LOOP + CTP37, rabbit # 4166; experiment: competition immunoassay, peptide competitor against rabbit antiserum 4166; legend: ++ = ED 50 < 250 ng

Measured: ED50

CDDPRFQDSSSSKAPPPSLPS [hCG-CTP21 (residues 130-150 of the beta subunit of hCG)]
10 to 250 ng: all assays above
